Test [1] deals with T1, high molecular weight kininogen (HK) (UniProt P01042 19-644).
T1 sequence (looked up): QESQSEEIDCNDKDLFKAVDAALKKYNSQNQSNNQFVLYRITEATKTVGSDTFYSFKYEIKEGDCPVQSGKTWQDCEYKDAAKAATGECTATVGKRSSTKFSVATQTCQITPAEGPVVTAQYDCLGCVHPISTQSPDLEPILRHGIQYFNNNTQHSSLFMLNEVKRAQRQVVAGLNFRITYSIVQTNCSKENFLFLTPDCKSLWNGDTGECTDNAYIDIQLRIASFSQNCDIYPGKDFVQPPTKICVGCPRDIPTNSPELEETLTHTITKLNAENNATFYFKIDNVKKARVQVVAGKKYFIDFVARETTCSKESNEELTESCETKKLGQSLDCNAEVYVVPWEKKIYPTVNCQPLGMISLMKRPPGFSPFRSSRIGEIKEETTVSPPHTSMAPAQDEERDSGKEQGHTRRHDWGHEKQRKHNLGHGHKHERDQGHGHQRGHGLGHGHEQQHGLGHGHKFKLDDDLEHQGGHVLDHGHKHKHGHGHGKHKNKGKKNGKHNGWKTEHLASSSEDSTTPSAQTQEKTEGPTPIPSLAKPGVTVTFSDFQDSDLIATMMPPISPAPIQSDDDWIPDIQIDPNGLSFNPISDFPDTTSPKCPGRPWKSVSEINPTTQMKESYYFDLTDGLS
The test can be described thus: HK binding to recombinant gC1q-R deletion mutants (FIG. 7).

Test [2] addresses T1, high molecular weight kininogen (HK). The test can be described thus: solid phase ELISA, peptide on the plate. The source says:
Several peptides were synthesized that correspond with the gC1q-R domains of very high negative charge and, which based on their location in the crystal structure on the solution-face, are hypothesized to interact with solution-phase ligands.
(ELISA stands for enzyme-linked immunosorbent assay.)

B1: gC1q-R deletion mutant lacking residues 204-218 (receptor, human, UniProt Q07021 74-282, looked up)
chain: LHTDGDKAFVDFLSDEIKEERKIQKHKTLPKMSGGWELELNGTEAKLVRKVAGEKITVTFNINNSIPPTFDGEEEPSQGQKVEEQEPELTSTPNFVVEVIKNDDGKKALVLDCHYPEDEVGQEDEAESDIWKDTNYTLNTDSLDWALYDHLMDFLADRGVDNTFADELVELSTALEHQEYITFLEDLKSFVKSQ
notes: also called mutant lacking these residues
Regarding B1, the binding result in test [1] is “no binding”.

B2: gC1q-R peptide (amino acids 190-202) (peptide)
peptide: EDEVGQEDEAESD
notes: Synthetic peptide coated on ELISA wells
With B2, in test [2], the binding result is recorded as “binds”.

(Values after patent US20120082676A1 (RESEARCH FOUNDATION OF STATE UNIVERSITY OF NEW YORK, published 2012).)
